Source: patent US20240309110A1 (DANMARKS TEKNISKE UNIVERSITET, published 2024)
Positions count from the first letter of the chain named. Blank lines part the entries; values can stand above or below the binder they belong to. No end group written: not given here.

Key:
[1] = biological target: T1, MUC1 peptide no 1 (bisTn-MUC1): Btn-Ahx-SAPDTRPAPGS*T*APPAHGVTSAPD-OH (N-terminal Btn-Ahx (biotin-aminohexyl); GalNAc (Tn) on the Ser and the Thr marked * in GS*T*AP); test: glycopeptide microarray
T1 construct: Synthetic MUC1 glycopeptide; also called peptide 1; target peptide 1
T1 peptide: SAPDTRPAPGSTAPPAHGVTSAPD

[2] = biological target: T2, MUC1 peptide no 11 (bisSTnMUC1): GSTAP (not fully specified (residue 2)); test: glycopeptide microarray, signal as heat map
T2 construct: also called glycopeptide 11
T2 peptide: GST(Neu5Ac(a2-6)GalNAc)AP

[3] = biological target: T3, MUC1 peptide no 12 (monoSTnMUC1): GSTAP; test: glycopeptide microarray, signal as heat map
T3 construct: also called glycopeptide 12
T3 peptide: GST(Neu5Ac(a2-6)GalNAc)AP

[4] = biological target: MUC1 20-mer glycopeptide no. 29 of Table 5 (…, no Ala substitution) (GalNAc sites are shown in bold and underlined in Table 5; the marks are lost in the text); test: glycopeptide microarray (20-mer MUC1 Tn-glycopeptides printed on a chip), RFU as heat map
Sequence of MUC1 20-mer glycopeptide no. 29 of Table 5 (…, no Ala substitution) (GalNAc sites are shown in bold and underlined in Table 5; the marks are lost in the text) (peptide, as listed by the source): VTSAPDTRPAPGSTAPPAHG

[5] = biological target: T1, MUC1 peptide no 1 (bisTn-MUC1): …; test: glycopeptide microarray, bar chart with single points [panel C4]
[6] = biological target: T1, MUC1 peptide no 1 (bisTn-MUC1): …; test: glycopeptide microarray, bar chart with single points [panel D3]
[7] = biological target: T4, MUC1 20-mer glycopeptide no. 24 of Table 5 (VTSAPDTRPAPGSAAPPAHG, Thr to Ala) (GalNAc sites are shown in bold and underlined in Table 5; the marks are lost in the text); test: glycopeptide microarray
T4 peptide: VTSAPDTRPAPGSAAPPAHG

[8] = biological target: T5, AHGVTSAPDTR (T13 and S14 carry GalNAc (Tn), bold and underlined on the sheet); test: glycopeptide microarray (20-mer MUC1 Tn-glycopeptides printed on a chip), RFU as heat map
T5 construct: also called MUC1 20-mer glycopeptide no
T5 peptide: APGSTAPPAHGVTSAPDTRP

[9] = biological target: T6, PAPGSTAAPAH (S13 and T14 carry GalNAc (Tn), bold and underlined on the sheet); test: as above
T6 construct: also called MUC1 20-mer glycopeptide no
T6 peptide: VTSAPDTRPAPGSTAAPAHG

[10] = biological target: T1, MUC1 peptide no 1 (bisTn-MUC1): …; test: glycopeptide microarray, bar chart with single points [panel C7]

B1: scFv G2D11 mutant M1 (LAL) (scFv)
scFv: DVVMTQSHKFMSTSVGDRVSITCKASQDVGTAVAWYQQKPGQSPKLLIYWASTRHTGVPDRFTGSGSGTDFTLTISNVQSEDLADYFCQQYSSYPLTFGGGTKLEMKRGGGGSGGGGSGGGGSGGGGSQVQMQQSDAELVKPGASVKISCKASGYIFADHAIHWVKRKPEQGLEWIGYISPGNDDIKYNEKFKGKATLTADKSSSTAYMQLNSLTSEDSAVYFCKRSLLALDYWGQGTTLTVSS
notes: Mutant of scFv G2D11 with the mutations in the VH domain; '-' stands for the deletion of G102; also called LAL mutant M1
- binding result [1]: no binding
- binding result [2]: no binding
- binding result [3]: no binding

B2: scFv G2D11 mutant M2 (LAL-TFT) (scFv)
scFv: B1 scFv with I156T, A158T
notes: also called LAL+TFT mutant M2
- binding result [1]: no binding

B5: scFv D3-STnMUC1 (scFv)
scFv: IVMTQSPSSLAVSAGEKVTMSCKSSQSLLNSRTRKNYLAWYQQKPGQSPKLLIYWASTRHTGVPDRFTGSGSGTDFTLTISNVQSEDLAEYFCQQYNSYPYTFGGGTKLEIKRGGGSGGGSGGGSGGGSGGGSQVQMQQSDAELVKPGASVKISCKASGYTFTDHAIHWVKRKPEQGLEWIGYISPGNDDIKYNEKFKGKATLTADKSSSTAYMQLNSLTSEDSAVYFCKRSLLALDYWGQGTTLTVSS
notes: From the STn-template library
- binding result [6]: no binding

B7: scFv C7-STnMUC1 (scFv)
scFv: VVVTQTPLSLPVSLGDQASISCRSSQSLVHSNGNTYLHWYLQKPGQSPKLLIYKVSNRFSGVPDRFSGSGSGTDFTLKISRVEAEDLGVYFCSQSTHVPRTFGGGTKLEIKRGGGSGGGSGGGSGGGSGGGSQVQMQQSDAELVKPGASVKISCKASGYTFTDHAIHWVKRKPEQGLEWIGYISPGNDDIKYNEKFKGKATLTADKSSSTAYMQLNSLTSEDSAVYFCKRSLLALDYWGQGTTLTVSS
notes: From the STn-template library
- binding result [10]: no binding

Now from value to binder:

- binding result [4]: no binding
B3: scFv 2D9Chi (scFv, V domains shown)
VH: not shown
VL: DIVMSQSPSSLAVSVGEKVTMSCKSSQSLLYSSDQKNYLAWYQQKPGQSPKLLIYWASTRESGVPDRFTGSGSGTDFTLTISSVKAEDLAVYYCQQCYSYPFTFGSGTKLERKR
notes: 2D9Chi comprises the 2D9 VL domain and G2D11 VH domain

- binding result [5]: no binding
B4: scFv C4-STnMUC1 (scFv)
scFv: B5 scFv
notes: From the STn-template library

- binding result [7]: no binding
- binding result [8]: no binding
- binding result [9]: no binding
B6: scFv 5E5 (scFv, V domains shown)
VH: QSDAELVKPGSSVKISCKASGYTFTDHAIHWVKQKPEQGLEWIGHFSPGNTDIKYNDKFKGKATLTVDRSSSTAYMQLNSLTSEDSAVYFCKTSTFFFDYWGQGTTLTVSS
VL: ELVMTQSPSSLTVTAGEKVTMICKSSQSLLNSGDQKNYLTWYQQKPGQPPKLLIFWASTRESGVPDRFTGSGSGDFTLTISSVQAEDLAVYYCQNDYSYPLTFGAGTKLELK
notes: Single chain Fv in the microarray; also called svFV 5E5

- binding result [3]: no binding
B8: scFv G2D11 mutant M4 (TFT-G) (scFv)
scFv: DVVMTQSHKFMSTSVGDRVSITCKASQDVGTAVAWYQQKPGQSPKLLIYWASTRHTGVPDRFTGSGSGTDFTLTISNVQSEDLADYFCQQYSSYPLTFGGGTKLEMKRGGGGSGGGGSGGGGSGGGGSQVQMQQSDAELVKPGASVKISCKASGYTFTDHAIHWVKRKPEQGLEWIGYISPGNGDIKYNEKFKGKATLTADKSSSTAYMQLNSLTSEDSAVYFCKRSLPGTFDYWGQGTTLTVSS
notes: The only mutant without LAL; also called TFT mutation only
